From PMC2212462 (The Journal of Experimental Medicine, 1998)
Values belong to the molecule of their own block, whether it stands above or below them.

What was measured:
[1] = target: CD3-ε (human (endogenous in HPB-ALL)) (UniProt P07766); assay: co-IP
[2] = target: the molecule itself; assay: non-reducing and reducing SDS-PAGE with Western blot

CD3-ε (human (endogenous in HPB-ALL)), sequence (P07766 23-207): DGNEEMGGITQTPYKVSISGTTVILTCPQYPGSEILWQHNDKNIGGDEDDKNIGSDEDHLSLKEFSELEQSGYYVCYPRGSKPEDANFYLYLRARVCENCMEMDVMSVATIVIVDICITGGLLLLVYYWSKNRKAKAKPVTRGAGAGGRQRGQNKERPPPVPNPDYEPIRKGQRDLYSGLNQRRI

reduction of TRIM in the lysate after depletion of CD3 [1]: 67%
Molecule: T cell receptor interacting molecule (TRIM) (from UniProt Q6PIZ9 1-186) (natural protein)

B1: T cell receptor interacting molecule (TRIM) (natural protein)
chain: MSGISGCPFFLWGLLALLGLALVISLIFNISHYVEKQRQDKMYSYSSDHTRVDEYYIEDTPIYGNLDDMISEPMDENCYEQMKARPEKSVNKMQEATPSAQATNETQMCYASLDHSVKGKRRKPRKQNTHFSDKDGDEQLHAIDASVSKTTLVDSFSPESQAVEENIHDDPIRLFGLIRAKREPIN
stoichiometry N [2]: 2
